Measured values reported in article PMC314469, “Protein Interaction Networks by Proteome Peptide Scanning” (PLoS Biology, 2004).

T1: Rvs167 SH3 (RV167_YEAST), P39743
T1 chain: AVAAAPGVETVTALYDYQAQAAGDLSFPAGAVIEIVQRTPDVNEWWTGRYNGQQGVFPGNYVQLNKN

T2: Yhr016c SH3 (YSC84_YEAST), P32793
T2 chain: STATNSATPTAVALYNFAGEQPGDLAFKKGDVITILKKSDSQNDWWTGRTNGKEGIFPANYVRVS

T3: Boi1 SH3 (BOI1_YEAST), P38041
T3 chain: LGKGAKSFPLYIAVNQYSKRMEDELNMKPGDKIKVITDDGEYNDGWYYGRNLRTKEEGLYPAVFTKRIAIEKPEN

T4: Yfr024 SH3 (LSB3_YEAST), P43603
T4 chain: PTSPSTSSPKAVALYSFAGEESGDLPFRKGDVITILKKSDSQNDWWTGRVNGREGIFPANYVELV

T5: Boi2 SH3 (BOI2_YEAST), P39969
T5 chain: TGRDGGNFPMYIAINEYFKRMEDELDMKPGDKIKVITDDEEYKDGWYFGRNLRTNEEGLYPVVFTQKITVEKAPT

T6: Myo5 SH3 (MYO5_YEAST), Q04439
T6 chain: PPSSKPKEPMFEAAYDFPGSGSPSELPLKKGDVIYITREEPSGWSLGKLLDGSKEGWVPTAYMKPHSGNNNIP


Assays:
Experiment in all cases: SPOT array
[1] = biological target: T1, Rvs167 SH3 (RV167_YEAST), P39743
[2] = biological target: T2, Yhr016c SH3 (YSC84_YEAST), P32793
[3] = biological target: T3, Boi1 SH3 (BOI1_YEAST), P38041
[4] = biological target: T4, Yfr024 SH3 (LSB3_YEAST), P43603
[5] = biological target: T5, Boi2 SH3 (BOI2_YEAST), P39969
[6] = biological target: T6, Myo5 SH3 (MYO5_YEAST), Q04439
[7] = biological target: Sho1 SH3 (SHO1_YEAST), P40073
Chain of Sho1 SH3 (SHO1_YEAST), P40073 (P40073 295-366): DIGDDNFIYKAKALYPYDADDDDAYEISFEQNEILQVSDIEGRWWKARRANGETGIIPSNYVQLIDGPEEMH

| normalised SPOT signal, Boehringer light units (BLU); mean over the file's lines of this peptide [1] | normalised SPOT signal, Boehringer light units (BLU); mean over the file's lines of this peptide [2] | normalised SPOT signal, Boehringer light units (BLU); mean over the file's lines of this peptide [3] | normalised SPOT signal, Boehringer light units (BLU); mean over the file's lines of this peptide [4] | normalised SPOT signal, Boehringer light units (BLU); mean over the file's lines of this peptide [5] | normalised SPOT signal, Boehringer light units (BLU); mean over the file's lines of this peptide [6] | normalised SPOT signal, Boehringer light units (BLU); mean over the file's lines of this peptide [7] | Binder |
| --- | --- | --- | --- | --- | --- | --- | --- |
| 605 | 96.9 | 226 | 2840 | 123 | 266 | 642 | HRLFKSTPGLPKLW [YAL048C 356-369] |
| 373 | 180 | 60.7 | 674 | 1150 | 157 | 115 | IFVTRYLPYFPIMY [YBL066C 354-367] |
| 94.4 | 29.9 | 1.1 | 470 | 28.4 | 144 | 21600 | HSTPKPLPPVPALS [YNL106C 1030-1043] |
| 283 | 43.3 | 256 | 555 | 34.5 | 158 | 65 | IAVTRSIPRGPDKN [YOR322C 264-277] |
| 85.2 | 58.6 | 132 | 304 | 9.4 | 237 | 276 | IKYFKKFPKDPLAM [YPR189W 306-319] |
| 9.1 | 0 | 50.1 | 34.3 | 3.3 | 139 | 40.3 | IDIPRTNPHIPLYQ [YOR070C 339-352] |
| 29.5 | 87.4 | 136 | 489 | 39.8 | 888 | 57.1 | IAKLKRKPVVPRLK [YPR056W 317-330] |
| 54.9 | 22.5 | 119 | 133 | 10.4 | 233 | 35.5 | IDKSKLSPRFPELK [YDR237W 35-48] |
| 20.5 | 9.5 | 69.4 | 0 | 28.7 | 91.1 | 25.5 | IAEWKNDPNNPNFE [YMR277W 194-207] |

Second part, the binder before the results:

| Binder | normalised SPOT signal, Boehringer light units (BLU); mean over the file's lines of this peptide [1] | normalised SPOT signal, Boehringer light units (BLU); mean over the file's lines of this peptide [2] | normalised SPOT signal, Boehringer light units (BLU); mean over the file's lines of this peptide [3] | normalised SPOT signal, Boehringer light units (BLU); mean over the file's lines of this peptide [4] | normalised SPOT signal, Boehringer light units (BLU); mean over the file's lines of this peptide [5] | normalised SPOT signal, Boehringer light units (BLU); mean over the file's lines of this peptide [6] | normalised SPOT signal, Boehringer light units (BLU); mean over the file's lines of this peptide [7] |
| --- | --- | --- | --- | --- | --- | --- | --- |
| IGKSKSAPPIPEDT [YJL095W 1392-1405] | 26 | 12.5 | 74.3 | 42.9 | 58.9 | 244 | 6.7 |
| HTIPKSGPIVPYVL [YGR010W 26-39] | 28.2 | 18.7 | 58.4 | 47.8 | 33.2 | 164 | 42.1 |
| IKMSRSPPRPPSLK [YDR243C 237-250] | 1150 | 1780 | 1330 | 8250 | 416 | 17700 | 223 |
| IGSPRHAPSRPDSI [YOL138C 1121-1134] | 124 | 57.9 | 182 | 1010 | 28.1 | 193 | 18.4 |
| IESLREIPYGPDFD [YML105C 200-213] | 14.9 | 1.9 | 16.4 | 2.6 | 22 | 116 | 47.7 |
| IAGQRTFPEDPNYP [YKR051W 375-388] | 28.7 | 16 | 45.1 | 89.6 | 0 | 172 | 43.4 |
| IESFRERPLEPPRK [YDR448W 138-151] | 163 | 88.1 | 46.7 | 2680 | 120 | 98.7 | 55.1 |
